Assay results: patent US20250082573A1, “COMPOSITIONS AND METHODS FOR DELIVERY OF OCULAR THERAPEUTICS” (The Board of Trustees of the Leland Stanford Junior …, priority 2023, published 2025)

Legend:
[1] = VH mimic depot formation and model cargo release assay; format: physicochemical; settings: cargo in PNP hydrogel vs PBS bolus, 50 μL into VH mimic; fluorescein 0.25 mg mL^−1, albumin-FITC 10 mg mL^−1
Protocol: This example describes PNP-2-10 hydrogel depot formation and model cargo release in a VH mimic. The PNP-2-10 hydrogel was prepared as described in Example 1. The present technology is directed to ITV administration of PNP hydrogels in the sensitive environment of the eye. To better visualize and understand how the PNP hydrogels would behave in the VH, depot formation and model cargo release were analyzed in a VH mimic composed of agar and hyaluronic acid (HA). […]
To prepare the VH mimic release assay, 50 μL of PNP hydrogel or PBS loaded with either 0.25 mg mL^−1 fluorescein or 10 mg mL^−1 albumin-FITC (MW˜66 kDa, mol FITC:mol albumin=14) was injected through a 30-gauge needle into a cuvette containing a VH mimic. […] Dye release was quantified using ImageJ software. Images were separated into red, blue, and green channels and the intensity in the green channel within a region inside the hydrogel depot or initial PBS injection site was measured for each time point, denoted Itn. […] The fraction of dye remaining in the gel depot at the final time point was determined by comparing the change in background intensity from times t0 to tplateau for PBS and gel samples:
The percent of dye retained in the gel or PBS injection site at each time point tn was determined by normalizing the intensity as
where tf is the final time point measured and C is a constant defined by […]

[2] = following IV administration; cited from earlier work

Q: Which “increase of effective half-life of retention compared to the control PBS bolus” value [1] does the source give for “albumin-FITC: a model protein, MW˜66 kDa, mol FITC:mol albumin=14” here?
A: The value was “over 3.7 fold”.

Q: With `CCNC(=O)CCC/C=C\C[C@@H]1[C@@H](/C=C/[C@@H](O)CCc2ccccc2)[C@H](O)C[C@@H]1O` [bimatoprost] as the molecule, how does the elimination half-life [2] read?
A: The elimination half-life was 45 min.
